In patent publication US7829301B2, “Screening assays for binding antagonists of the AMD-associated variant of factor H (H384)” (The University of Manchester, priority 2006, dated 2010):

Target: T1, full length FH (Homo sapiens, UniProt P08603)
T1 construct: Purification of Full-Length Factor H from Human Serum; from tissue; host or cells: human serum
Assay: Binding of full length FH to untreated and N-glycosidase F-treated FMOD
Conditions: p<10-4 for all data points above zero
Method: FMOD was isolated from bovine articular cartilage (Heinghrd et al., (1986) J. Biol. Chem. 261, 13866-13872) and recombinant CRP was obtained from Calbiochem. Deglycosylated FMOD was prepared by treatment with N-glycosiadase F (Roche Applied Science) as previously described (Sjöberg et al. (2005) J. Biol. Chem. 280, 32301-32308).
CRP or FMOD was coated overnight at 4° C. onto microtiter plates (Maxisorp, Nunc) at a concentration of 10 μg/ml in 75 mM sodium carbonate buffer, pH 9.6. Wells treated only with coating buffer or 1% (w/v) BSA (Sigma) in coating buffer (for the assays involving FMOD) were used as negative controls. Between each step the wells were washed extensively with 50 mM Tris-HCl, 150 mM NaCl, 0.1% (v/v) Tween 20, pH 7.5. All wells were blocked with 1% (w/v) BSA (Sigma) in phosphate buffered saline (Invitrogen) for 1 hour at 37° C. […] The amount of bound protein was assessed using a goat polyclonal anti-FH antibody (Quidel, Cat # A312) followed by HRP-labeled anti-goat secondary antibodies (Dako) and the OPD development kit (Dako). Detection of biotinylated protein was performed using a StreptABComplex/HRP-kit from Dako, and in both cases the absorbance at 490 nm was measured to quantify protein binding.

T1 sequence (P08603 19-1231): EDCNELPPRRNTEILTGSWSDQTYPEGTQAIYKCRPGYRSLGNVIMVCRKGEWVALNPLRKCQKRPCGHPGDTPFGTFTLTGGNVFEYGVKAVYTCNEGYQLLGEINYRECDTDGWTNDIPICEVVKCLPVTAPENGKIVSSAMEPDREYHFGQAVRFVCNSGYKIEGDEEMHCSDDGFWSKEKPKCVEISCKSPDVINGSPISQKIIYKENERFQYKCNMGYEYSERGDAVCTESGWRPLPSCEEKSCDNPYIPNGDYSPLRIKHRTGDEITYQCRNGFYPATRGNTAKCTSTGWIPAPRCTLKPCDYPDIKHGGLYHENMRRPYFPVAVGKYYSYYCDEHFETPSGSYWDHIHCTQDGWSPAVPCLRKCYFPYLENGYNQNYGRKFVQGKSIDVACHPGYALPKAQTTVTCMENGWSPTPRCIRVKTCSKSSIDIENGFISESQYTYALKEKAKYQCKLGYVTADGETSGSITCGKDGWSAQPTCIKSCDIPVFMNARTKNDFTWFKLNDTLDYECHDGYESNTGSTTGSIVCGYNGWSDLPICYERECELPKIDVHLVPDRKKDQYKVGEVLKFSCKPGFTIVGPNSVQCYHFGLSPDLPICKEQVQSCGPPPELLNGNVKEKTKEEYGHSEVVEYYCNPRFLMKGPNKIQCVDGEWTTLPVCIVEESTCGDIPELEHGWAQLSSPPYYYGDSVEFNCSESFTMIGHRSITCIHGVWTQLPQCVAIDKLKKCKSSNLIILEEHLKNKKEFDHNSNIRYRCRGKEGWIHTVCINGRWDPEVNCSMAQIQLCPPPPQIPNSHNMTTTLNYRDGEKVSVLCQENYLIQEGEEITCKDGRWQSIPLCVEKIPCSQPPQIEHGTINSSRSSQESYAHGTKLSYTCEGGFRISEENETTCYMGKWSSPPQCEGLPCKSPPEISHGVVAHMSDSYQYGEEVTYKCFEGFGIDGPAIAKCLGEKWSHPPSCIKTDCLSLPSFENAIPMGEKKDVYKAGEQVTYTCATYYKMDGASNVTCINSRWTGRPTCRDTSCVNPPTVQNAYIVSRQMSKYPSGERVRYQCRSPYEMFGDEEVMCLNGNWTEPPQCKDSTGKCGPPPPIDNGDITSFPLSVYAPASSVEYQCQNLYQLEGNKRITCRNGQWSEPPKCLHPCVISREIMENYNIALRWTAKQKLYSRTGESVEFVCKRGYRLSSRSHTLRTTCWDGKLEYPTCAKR

binding of FH compared to keratan sulphate-containing FMOD: significantly better
B1: deglycosylated FMOD: fibromodulin from bovine articular cartilage treated with N-glycosidase F to remove N-linked oligosaccharides including keratan sulphate (protein)
chain: QYEEDSHWWFQFLRNQQSTYDDPYDPYPYEPYEPYPYGGEEGPAYAYGSPPQPEPRDCPQECDCPPNFPTAMYCDNRNLKYLPFVPSRMKYVYFQNNQISSIQEGVFDNATGLLWIALHGNQITSDKVGKKVFSKLRHLERLYLDHNNLTRIPSPLPRSLRELHLDHNQISRVPNNALEGLENLTALYLHHNEIQEVGSSMKGLRSLILLDLSYNHLRKVPDGLPSALEQLYLEHNNVFSVPDSYFRGSPKLLYVRLSHNSLTNNGLASNTFNSSSLLELDLSYNQLQKIPPVSTNLENLYLQGNRINEFSISSFCTVVDVMNFSKLQVLRLDGNEIKRSAMPADAPLCLRLASLIEI
